First the molecules themselves.
B1: H6 flagella (polymeric FliC flagellin) of E. coli O127:H6 (natural protein)
chain: MAQVINTNSLSLITQNNINKNQSALSSSIERLSSGLRINSAKDDAAGQAIANRFTSNIKGLTQAARNANDGISVAQTTEGALSEINNNLQRIRELTVQASTGTNSDSDLDSIQDEIKSRLDEIDRVSGQTQFNGVNVLAKDGSMKIQVGANDGQTITIDLKKIDSDTLGLNGFNVNGKGETANTAATLKDMSGFTAAAAPGGTVGVTQYTDKSAVASSVDILNAVAGADGNKVTTSADVGFGTPAAAVTYTYNKDTNSYSAASDDISSANLAAFLNPQARDTTKATVTIGGKDQDVNIDKSGNLTAADDGAVLYMDATGNLTKNNAGGDTQATLAKVATATGAKAATIQTDKGTFTSDGTAFDGASMSIDANTFANAVKNDTYTATVGAKTYSVTTGSAAADTAYMSNGVLSDTPPTYYAQADGSITTTEDAAAGKLVYKGSDGKLTTDTTSKAESTSDPLAALDDAISQIDKFRSSLGAVQNRLDSAVTNLNNTTTNLSEAQSRIQDADYATEVSNMSKAQIIQQAGNSVLAKANQVPQQVLSLLQG
B2: recombinant human galectin-4 (natural protein, UniProt P56470 1-323, looked up)
chain: MAYVPAPGYQPTYNPTLPYYQPIPGGLNVGMSVYIQGVASEHMKRFFVNFVVGQDPGSDVAFHFNPRFDGWDKVVFNTLQGGKWGSEERKRSMPFKKGAAFELVFIVLAEHYKVVVNGNPFYEYGHRLPLQMVTHLQVDGDLQLQSINFIGGQPLRPQGPPMMPPYPGPGHCHQQLNSLPTMEGPPTFNPPVPYFGRLQGGLTARRTIIIKGYVPPTGKSFAINFKVGSSGDIALHINPRMGNGTVVRNSLLNGSWGSEEKKITHNPFGPGQFFDLSIRCGLDRFKVYANGQHLFDFAHRLSAFQRVDTLEIQGDVTLSYVQI
notes: also called GAL4

The data set “SEC” concerns the molecule itself. Kind of data set: SEC. Background: SEC sorts molecules by how far they enter the pores of the column.
Data set [1] concerns the target B1. Kind of data set: ELISA. The settings on record: both partners purified.

As for B1, in “SEC”, the binding result is reported as “binds”.
On to B2, for which the binding result in data set [1] is listed as “binds”.

(Values after PMC7660914 (Microbiology, 2020).)
